# In the RNAGym collection of RNA variant scans (doi:10.7554/elife.80360):
# B1: HDV Ribozyme (parent)
# chain: GGCCGGCAUGGUCCCAGCCUCCUCGCUGGCGCCGGCUGGGCAACAUUCCGAGGGGACCGUCCCCUCGGUAAUGGCGAAUGGGACCCA
# Variants of: B1
# Assay: self-cleavage, relative activity (ratio to wild type); higher = more cleavage; co-transcriptional
row,Variant,self-cleavage
1,G11A U46G,0.128
2,G11A U46A,0.148
3,G11A,0.42
4,G11C,0.314
5,G11C C15U,0.0554
6,G11C C15A,0.0396
7,G10C U65G,0.997
8,G10C U65A,0.665
9,G10C G76A,1.2
10,G10U C36U,0.472
11,G10U C36G,0.0615
12,G11A C48U,0.326
13,G11A C33A,0.151
14,G11A C33G,0.0554
15,G10C C66G,0.646
16,G10C C66A,0.848
17,G10C C66U,0.862
18,G11A U20G,0.0326
19,G11A U20A,0.0623
20,G11A U20C,0
21,G11A U47C,0.475
22,G11A U47G,0.58
23,G10U U23G,0.0791
24,G10U U23A,0.604

row,Variant,self-cleavage
1,G10U U23C,0.62
2,G10U G81A,0.026
3,G11A C13A,0.0791
4,G10C U46G,0.346
5,G10C U46C,0.475
6,G10C U46A,0.525
7,G10U A83G,0.221
8,G10U A83U,0.177
9,G10C G54C,1.09
10,G10U G31C,0.158
11,G10U G11C,0.237
12,G10U G11U,0.344
13,G11A G76U,0.623
14,G11A G76A,0.578
15,G11A C61A,0.379
16,G10U A77U,0.174
17,G10U A77G,0.424
18,G10C C57A,1.06
19,G11C C24G,0.0583
20,G11C C24A,0.0898
21,G11C C24U,0.219
22,G11A G39C,0
23,G11A G39U,0.0989
24,G11A A16C,0.35

row,Variant,self-cleavage
1,G11A A16G,0.323
2,G11A C49G,0.156
3,G10C G59C,0.785
4,G10C G59A,0.895
5,G10U A16U,0.846
6,G10C G34C,0.289
7,G11A C18A,0.0841
8,G11A C18G,0.041
9,G11A C18U,0.12
10,G10U U12A,0.0831
11,G10U U12C,0.0755
12,G10U U12G,0.172
13,G11A G29A,0.0633
14,G10U G17A,0.704
15,G10U G17U,0.487
16,G10C U23A,1.04
17,G10C U23G,0.332
18,G10C G81C,0.214
19,G10C G81U,0.196
20,G10U G74A,0.107
21,G11A G55U,0.328
22,G11A G55C,0.396
23,G10U C14G,0.166
24,G10U C14A,0

row,Variant,self-cleavage
1,G10C G55U,0.831
2,G10C G55C,0.759
3,G10U C21U,0.0532
4,G10U C21A,0.0332
5,G10U C21G,0
6,G10C G82C,0.0875
7,G10C G82A,0.314
8,G11A G59C,0.381
9,G11A G59U,0.408
10,G10U C62G,0.641
11,G10U C62U,0.722
12,G10U C62A,0.787
13,G11A U72C,0.121
14,G11A U72A,0.179
15,G11A C41G,0.188
16,G11A C41A,0.381
17,G11A C41U,0.396
18,G10U C33G,0.0511
19,G11C A77U,0.0462
20,G11C A77G,0.138
21,G10U G28A,0.0791
22,G11A G74U,0.123
23,G11A G74A,0.0769
24,G11A C64U,0.249

row,Variant,self-cleavage
1,G11A C64G,0.705
2,G11A U27G,0.359
3,G10U U69G,0.815
4,G10U U69C,0.656
5,G11C C32A,0.0437
6,G10U C41G,0.619
7,G10U C75A,0.0213
8,G10U U20A,0.0639
9,G10U U20G,0.113
10,G11A A83C,0.0707
11,G10U C24U,0.427
12,G10U C24G,0.0886
13,G10U C24A,0.328
14,G10C G73C,0.277
15,G10U G59U,0.905
16,G10U G59C,0.857
17,G11C A56U,0.111
18,G11C A56C,0.598
19,G10C G67U,0.782
20,G10C G80A,0.166
21,G10C C85G,0.76
22,G11C C13G,0.0437
23,G11C C13U,0.0852
24,G11A G53U,0.588

row,Variant,self-cleavage
1,G11A A87G,0.502
2,G10U C64G,0.669
3,G11C A78C,0.0369
4,G10U C86G,0.445
5,G10U C86U,0.867
6,G11C C14A,0.106
7,G11A C84A,0.787
8,G11A C84G,0.851
9,G11A C84U,0.991
10,G11A G52U,0.548
11,G11A G52C,0.521
12,G10C G31U,0.219
13,G10U U65G,0.619
14,G11A G25U,0.0801
15,G11A G25C,0.0906
16,G11A U60G,0.399
17,G11A U60C,0.43
18,G11A C86U,0.338
19,G10U C66U,0.728
20,G10U C66G,0.717
21,G11A C63U,0.376
22,G10U A42U,0.174
23,G10U A42C,0.149
24,G10U A42G,0.325

row,Variant,self-cleavage
1,G11A C30A,0.106
2,G11A C30G,0.0225
3,G11A C58U,0.322
4,G11A C58A,0.554
5,G11A C58G,0.415
6,G10U G39C,0.138
7,G11A A70C,0.175
8,G10C G68A,0.706
9,G10C G68C,0.705
10,G11A C24A,0.126
11,G11A C24G,0.0747
12,G11A C24U,0.194
13,G10C G40C,0.264
14,G10U G38C,0.058
15,G10U G38A,0.103
16,G10C C62G,0.719
17,G10U C15G,0.0773
18,G10U C15U,0.445
19,G10U C15A,0.222
20,G10U A56G,0.689
21,G10U A56U,0.893
22,G10U C30U,0.137
23,G10U A51U,0.767
24,G10U A51G,0.707

row,Variant,self-cleavage
1,G10U A51C,1.09
2,G10C C61A,0.734
3,G10C C61U,0.578
4,G10U U37G,0.0978
5,G11A G73C,0.0252
6,G11A G73U,0.0769
7,G11A G73A,0.124
8,G10U G52U,0.891
9,G10U G52A,0.878
10,G10C U27G,0.798
11,G10C U27A,0.939
12,G10U G55U,0.787
13,G10U G55A,0.893
14,G10U C22G,0.0623
15,G10U C22A,0.0941
16,G10U C85G,1.03
17,G10U C85A,1.15
18,G11A A56U,0.487
19,G11C C21A,0.0755
20,G10U G80C,0.0936
21,G10U G80A,0.131
22,G10U G82A,0.241
23,G10C C84U,0.604
24,G11C A70U,0.399

row,Variant,self-cleavage
1,G11A G67U,0.237
2,G11C A16C,0.95
3,G10U G25U,0.125
4,G10U G25C,0.111
5,G11A G80C,0.158
6,G11A G80A,0.197
7,G10C G52C,0.78
8,G10U U27A,0.642
9,G10U U27G,0.465
10,G11A A51U,0.468
11,G11A A51G,0.374
12,G10U C44A,0.277
13,G10U C44G,0.296
14,G10U C44U,0.459
15,G11A C26U,1.12
16,G10C C75G,0.115
17,G10C U69G,0.997
18,G10C U69A,0.831
19,G10C U69C,1.21
20,G10U,0.776
21,G10C G35A,0.525
22,G10C G35C,0.102
23,G11A A77U,0.109
24,G10C U60C,0.8

row,Variant,self-cleavage
1,G10C U60G,0.95
2,G10U A78G,0.449
3,G10U A78C,0.0499
4,G10C U37G,0.262
5,G11A G34A,0.358
6,G11A G34U,0.219
7,G10U U47A,0.514
8,G10U U47C,0.499
9,G10C G38A,0.0692
10,G10C G38U,0.132
11,G10C G38C,0.0941
12,G10C C58G,0.917
13,G11C A83U,0.119
14,G10C G29A,0.032
15,G11A C62U,0.354
16,G11A C62A,0.352
17,G10U G50C,0.817
18,G10U G50A,0.62
19,G10C U12G,0
20,G10U G35A,0.604
21,G10U G35U,0.337
22,G10U G35C,0.0723
23,G11A G68U,0.249
24,G11A G68A,0.372

row,Variant,self-cleavage
1,G11A A71U,0.229
2,G11A A71C,0.295
3,G11A A71G,0.554
4,G11C C18A,0.0804
5,G11C C18U,0.0992
6,G11C A71C,0.306
7,G11C A71U,0.252
8,G10U G54U,0.865
9,G10U U60A,0.635
10,G11A C36U,0.156
11,G10U G34A,0.259
12,G10C C86U,1.03
13,G10C C86G,0.538
14,G11C A45C,0.116
15,G11C A87C,0.607
16,G11C A87G,0.34
17,G10U A71C,0.604
18,G10C C48G,1.17
19,G10C C48A,0.853
20,G10C C48U,0.911
21,G10U C19U,0.144
22,G10U C26U,1.13
23,G10U C26G,0.677
24,G10C G28A,0.0723

row,Variant,self-cleavage
1,G10U G53U,0.699
2,G10U G53C,0.773
3,G10U U79C,0.0615
4,G11A G38C,0.0911
5,G11A G38A,0.102
6,G11A C85U,0.787
7,G11A C85A,0.735
8,G10U G67U,0.819
9,G10U G67A,0.611
10,G10U G67C,0.572
11,G10C G50U,0.956
12,G10C G50A,0.997
13,G11A G28C,0.0936
14,G11A G28A,0.0268
15,G10U C48U,0.782
16,G10U C48G,0.767
17,G11C A51C,0.35
18,G10U C18U,0.12
19,G10U C18G,0.111
20,G10U C57A,0.749
21,G11C C19A,0.0314
22,G11C C19U,0.0302
23,G11C C19G,0.0811
24,G11A U37G,0.142

row,Variant,self-cleavage
1,G11A C19A,0.0811
2,G11A C44U,0.0723
3,G11A C44G,0
4,G10U C13A,0.0332
5,G10U C13G,0
6,G10U U46G,0.597
7,G10U U46C,0.352
8,G11A U79G,0.0923
9,G11A U79A,0.0652
10,G11A G31A,0.114
11,G11A G31C,0.0997
12,G11C A42U,0.0536
13,G11C A42G,0.161
14,G10U A43C,0.115
15,G10U A43G,0.0604
16,G10U A43U,0.284
17,G10U C84U,0.409
18,G11A G17C,0.113
19,G11A G17A,0.544
20,G11A G17U,0.251
21,G10C G25C,0.178
22,G11A C21A,0.11
23,G11A C21U,0.175
24,G11A C21G,0.04

row,Variant,self-cleavage
1,G10U C61A,0.665
2,G10U C61G,0.635
3,G11A C15G,0.138
4,G10U C49U,0.955
5,G10U C49A,0.554
6,G10C G39C,0.359
7,G11A A43U,0.198
8,G11A A43C,0.106
9,G10C U79A,0.277
10,G10C U79G,0.346
11,G11A U12G,0.0875
12,G11A U12A,0.0831
13,G11A U12C,0.0415
14,G10C G53A,0.95
15,G11A A42U,0.158
16,G11A A78G,0.193
17,G10C U72C,0.289
18,G10C G74C,0.161
19,G10C G74A,0.119
20,G10C G74U,0.166
21,G10U U72G,0.407
22,G11A G40C,0.0623
